Experimental data: US6458932 (YEDA RESEARCH AND DEVELOPMENT, dated 2002)

Target: urinary IFNAB-BPII (human) (UniProt P48551)
Assay: iRIA; control antibody (dilution 1:1) captured on goat anti-mouse F(ab)2, then 125I-IFNAB-BP

Sequence of urinary IFNAB-BPII (human) (P48551 other isoform, or with tags, fused parts or gaps): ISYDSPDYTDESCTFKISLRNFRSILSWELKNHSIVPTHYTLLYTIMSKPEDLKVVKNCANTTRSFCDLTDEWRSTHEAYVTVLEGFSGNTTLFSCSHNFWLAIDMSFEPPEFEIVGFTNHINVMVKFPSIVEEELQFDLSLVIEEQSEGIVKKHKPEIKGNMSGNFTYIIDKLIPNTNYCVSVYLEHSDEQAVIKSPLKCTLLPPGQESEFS

iRIA - CPM: 20 cpm
Substance: Control antibody
